Drawing on PMC9482650, “Quantitative fragmentomics allow affinity mapping of interactomes” (Nature Communications, 2022), this text covers pKd for 2 molecules.

Holding throughout (test): holdup assay
What all share (set-up): key: below the threshold = too weak to quantify, mostly under pKd 3.1 to 4
Holding throughout (settings): plain residues with an end cap or a label only (N-terminal biotin on a linker: ttds)

The target of assay [1] is T1, PARD6B, Q9BYG5.
T1 sequence (Q9BYG5 152-260, limits assumed, looked up): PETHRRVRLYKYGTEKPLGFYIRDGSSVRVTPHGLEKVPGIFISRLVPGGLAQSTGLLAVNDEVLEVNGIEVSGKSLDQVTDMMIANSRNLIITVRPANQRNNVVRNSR

Assay [2] has as its target T2, PDZD8, Q8NEN9.
T2 sequence (Q8NEN9 361-459, limits assumed, looked up): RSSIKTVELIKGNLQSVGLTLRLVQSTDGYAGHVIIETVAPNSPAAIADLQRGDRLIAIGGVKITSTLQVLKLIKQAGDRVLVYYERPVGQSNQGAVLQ

Assay [3] has as its target T3, PREX2_2, Q70Z35.
T3 sequence (Q70Z35 672-764, limits assumed, looked up): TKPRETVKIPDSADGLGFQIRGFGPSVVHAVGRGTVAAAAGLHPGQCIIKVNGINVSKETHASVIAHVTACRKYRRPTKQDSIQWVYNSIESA

Assay [4] concerns the target T4, MPDZ_2, O75970.
T4 sequence (O75970 252-347, limits assumed, looked up): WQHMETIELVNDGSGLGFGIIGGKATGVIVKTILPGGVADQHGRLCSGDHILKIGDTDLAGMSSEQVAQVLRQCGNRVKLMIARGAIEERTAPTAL

In assay [5] the target is T5, USH1C_3, Q9Y6N9.
T5 sequence (Q9Y6N9 447-547, limits assumed, looked up): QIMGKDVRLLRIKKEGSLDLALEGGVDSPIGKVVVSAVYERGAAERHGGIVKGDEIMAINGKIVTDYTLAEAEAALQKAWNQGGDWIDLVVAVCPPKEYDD

Assay [6] concerns the target T6, MLLT4, P55196.
T6 sequence (P55196 1002-1103, limits assumed, looked up): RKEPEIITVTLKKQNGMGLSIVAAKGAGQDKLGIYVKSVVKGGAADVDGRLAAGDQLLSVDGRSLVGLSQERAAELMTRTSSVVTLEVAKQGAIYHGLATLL

Assay [7] addresses T7, CNKSR1, Q969H4.
T7 sequence (Q969H4 191-295, limits assumed, looked up): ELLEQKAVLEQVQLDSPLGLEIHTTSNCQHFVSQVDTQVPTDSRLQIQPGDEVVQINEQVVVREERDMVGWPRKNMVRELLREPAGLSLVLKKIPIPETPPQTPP

Assay [8] concerns the target T8, SNTB2, Q13425.
T8 sequence (Q13425 110-208, limits assumed, looked up): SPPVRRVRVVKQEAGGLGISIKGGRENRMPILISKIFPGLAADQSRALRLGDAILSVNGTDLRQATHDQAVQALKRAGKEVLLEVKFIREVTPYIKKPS

The target in assay [9] is PDZD9, Q8IXQ8.
Assay [10] addresses DLG2_1, Q15700.
In assay [11] the target is T9, DVL1, O14640.
T9 sequence (O14640 246-333, limits assumed, looked up): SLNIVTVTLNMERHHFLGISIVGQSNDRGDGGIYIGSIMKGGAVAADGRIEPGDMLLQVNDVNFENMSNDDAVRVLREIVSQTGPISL

Assay [12] deals with MAGI3_5, Q5TCQ9.
For assay [13], the target named is T10, NHERF1_2, O14745.
T10 sequence (O14745 149-244, limits assumed, looked up): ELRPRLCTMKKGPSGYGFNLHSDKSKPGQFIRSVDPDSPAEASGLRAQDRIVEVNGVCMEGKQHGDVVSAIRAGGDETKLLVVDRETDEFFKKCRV

Assay [14] concerns the target RIMS2, Q9UQ26.
In assay [15] the target is SDCBP_1, O00560.
For assay [16], the target named is T11, MPDZ_7, O75970.
T11 sequence (O75970 1146-1253, limits assumed, looked up): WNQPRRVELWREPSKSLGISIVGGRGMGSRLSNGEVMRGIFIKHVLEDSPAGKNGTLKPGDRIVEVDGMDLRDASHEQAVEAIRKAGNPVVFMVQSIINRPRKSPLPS

Assay [17] deals with T12, PDZD11, Q5EBL8.
T12 sequence (Q5EBL8 42-139, limits assumed, looked up): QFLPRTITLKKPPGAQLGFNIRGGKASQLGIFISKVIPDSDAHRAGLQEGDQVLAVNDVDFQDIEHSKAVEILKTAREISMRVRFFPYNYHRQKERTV

Assay [18] has as its target DVL2, O14641.
Assay [19] addresses AHNAK2, Q8IVF2.
For assay [20], the target named is T13, MPP5, Q8N3R9.
T13 sequence (Q8N3R9 251-346, limits assumed, looked up): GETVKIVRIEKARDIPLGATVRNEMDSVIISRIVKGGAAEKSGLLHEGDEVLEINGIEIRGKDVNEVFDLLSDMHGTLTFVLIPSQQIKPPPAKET

Assay [21] concerns the target T14, GIPC1, O14908.
T14 sequence (O14908 128-223, limits assumed, looked up): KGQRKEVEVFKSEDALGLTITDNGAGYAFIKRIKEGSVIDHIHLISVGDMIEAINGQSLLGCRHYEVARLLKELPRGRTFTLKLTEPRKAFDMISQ

Assay [22] concerns the target MAGI1_3, Q96QZ7.

Sequence of SDCBP_1, O00560 (O00560 111-198): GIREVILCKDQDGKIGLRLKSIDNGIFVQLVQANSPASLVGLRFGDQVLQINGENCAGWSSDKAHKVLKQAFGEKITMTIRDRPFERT
Sequence of DVL2, O14641 (O14641 260-359): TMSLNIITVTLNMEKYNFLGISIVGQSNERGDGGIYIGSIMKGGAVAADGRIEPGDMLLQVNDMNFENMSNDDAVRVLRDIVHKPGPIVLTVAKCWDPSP
Sequence of MAGI1_3, Q96QZ7 (Q96QZ7 638-725): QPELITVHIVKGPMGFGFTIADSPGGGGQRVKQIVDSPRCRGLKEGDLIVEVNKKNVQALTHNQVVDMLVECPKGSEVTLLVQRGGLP
Sequence of AHNAK2, Q8IVF2 (Q8IVF2 108-193): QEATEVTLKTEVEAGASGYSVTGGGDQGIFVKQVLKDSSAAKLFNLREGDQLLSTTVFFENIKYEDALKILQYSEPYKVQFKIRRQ
Sequence of PDZD9, Q8IXQ8 (Q8IXQ8 23-120): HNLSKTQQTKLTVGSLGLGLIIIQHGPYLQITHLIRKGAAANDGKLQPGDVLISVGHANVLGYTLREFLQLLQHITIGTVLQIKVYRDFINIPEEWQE
Sequence of RIMS2, Q9UQ26 (Q9UQ26 637-758): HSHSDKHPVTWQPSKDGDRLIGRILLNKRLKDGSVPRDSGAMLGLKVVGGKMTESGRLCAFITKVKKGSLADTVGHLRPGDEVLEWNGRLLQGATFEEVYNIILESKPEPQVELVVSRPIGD
Sequence of MAGI3_5, Q5TCQ9 (Q5TCQ9 847-941): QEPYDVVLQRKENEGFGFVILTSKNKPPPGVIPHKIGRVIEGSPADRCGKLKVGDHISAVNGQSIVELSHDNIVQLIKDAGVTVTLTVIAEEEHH

B1: TJP2, Q9UDY2 (peptide)
chain: QSARYRDTEL
In the case of B1, the pKd result in assay [1], in assay [2], in assay [3], in assay [4], in assay [5] and in assay [6] was “below the threshold” each time. The pKd result in [7], in assay [8], in assay [9], in [10], in assay [11] and in assay [12] was “below the threshold” each time. For the same molecule, the pKd result in assay [13], in [14], in [15], in [16], in assay [17] and in assay [18] was “below the threshold” throughout. Also, the pKd entry in [19], in assay [20], in assay [21] and in [22] was “below the threshold” in each case.

B2: ABCC4, O15439 (peptide)
chain: STLTIFETAL
As to B2, the pKd entry in assay [1], in assay [2], in assay [3], in assay [4], in assay [5] and in assay [6] was “below the threshold” each time. For the same molecule, the pKd result in assay [7] was “below the threshold”; in assay [8], 4.49; in assay [9] it was “below the threshold”; in [10] it was 4.21; in [11], “below the threshold”; in assay [12], 4.39. Also, the pKd result is “below the threshold” in [13]; “below the threshold” in [14]; “below the threshold” in assay [15]; 5.01 in [16]; 4.46 in [17]; “below the threshold” in assay [18]. Also, the pKd result in assay [19] was “below the threshold”; in assay [20], “below the threshold”; in [21], 4.1; in assay [22], “below the threshold”.

In general, pKd refers to −log10 of the Kd, conventionally taken in molar units.
